Results on one protein are retold here after paper PMC11208175.

Substrate in the data set: O=P(O)(O)O
The data set can be described thus: cells, lysate or membranes. The following applies: whole-cell transport in C. crescentus delta-pstS expressing pitA, 0.1-20 µM phosphate, 37 °C, labelled compound (33P tracer).

B1: PitA (Escherichia coli K-12) (protein)
chain: MLHLFAGLDLHTGLLLLLALAFVLFYEAINGFHDTANAVATVIYTRAMRSQLAVVMAAVFNFLGVLLGGLSVAYAIVHMLPTDLLLNMGSSHGLAMVFSMLLAAIIWNLGTWYFGLPASSSHTLIGAIIGIGLTNALMTGTSVVDALNIPKVLSIFGSLIVSPIVGLVFAGGLIFLLRRYWSGTKKRARIHLTPAEREKKDGKKKPPFWTRIALILSAIGVAFSHGANDGQKGIGLVMLVLIGVAPAGFVVNMNATGYEITRTRDAINNVEAYFEQHPALLKQATGADQLVPAPEAGATQPAEFHCHPSNTINALNRLKGMLTTDVESYDKLSLDQRSQMRRIMLCVSDTIDKVVKMPGVSADDQRLLKKLKSDMLSTIEYAPVWIIMAVALALGIGTMIGWRRVATTIGEKIGKKGMTYAQGMSAQMTAAVSIGLASYTGMPVSTTHVLSSSVAGTMVVDGGGLQRKTVTSILMAWVFTLPAAVLLSGGLYWLSLQFL
A word on the Km: it is the substrate concentration at which the rate is half of its maximum. Take B1: the Km is on record as 1.9 µM.
